{"source": "paper PMC3173232", "binders": {"B1": {"name": "40-bp DNA (dsDNA)", "DNA 1": "GGATACACAACAGACCGCAACACTCAGATTACTTTTCGCC", "DNA 2": "GGCGAAAAGTAATCTGAGTGTTGCGGTCTGTTGTGTATCC"}}, "key": {"[1]": {"biological_target": "XLF FL;XRCC4(1-140) (Homo sapiens;Homo sapiens, UniProt Q9H9Q4;Q13426 1-299;1-140, |)", "sequence (Q9H9Q4 whole entry, chain 1 of 2)": "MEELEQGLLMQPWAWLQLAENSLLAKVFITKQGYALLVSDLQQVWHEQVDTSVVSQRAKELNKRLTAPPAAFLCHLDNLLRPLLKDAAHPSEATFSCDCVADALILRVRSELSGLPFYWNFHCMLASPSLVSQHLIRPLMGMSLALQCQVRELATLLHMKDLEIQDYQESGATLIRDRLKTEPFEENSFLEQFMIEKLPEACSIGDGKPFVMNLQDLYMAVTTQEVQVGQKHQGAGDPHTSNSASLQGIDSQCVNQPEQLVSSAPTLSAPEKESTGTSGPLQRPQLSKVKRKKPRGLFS", "sequence (Q13426 1-140, chain 2 of 2)": "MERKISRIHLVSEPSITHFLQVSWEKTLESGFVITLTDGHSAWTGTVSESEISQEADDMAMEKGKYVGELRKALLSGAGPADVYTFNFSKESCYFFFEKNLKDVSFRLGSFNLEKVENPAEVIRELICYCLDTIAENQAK", "assay": "SAXS titration"}, "[2]": {"biological_target": "XLF(1-224);XRCC4(1-140) (Homo sapiens;Homo sapiens, UniProt Q9H9Q4;Q13426 1-224;1-140, |)", "sequence (Q9H9Q4 1-224, chain 1 of 2)": "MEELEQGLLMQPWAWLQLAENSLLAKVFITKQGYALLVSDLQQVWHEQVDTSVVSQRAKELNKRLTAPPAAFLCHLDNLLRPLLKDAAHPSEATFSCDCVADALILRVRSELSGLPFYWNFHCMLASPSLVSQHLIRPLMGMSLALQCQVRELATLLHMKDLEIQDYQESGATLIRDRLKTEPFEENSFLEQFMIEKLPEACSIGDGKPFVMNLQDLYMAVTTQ", "sequence (Q13426 1-140, chain 2 of 2)": "as the sequence (Q13426 1-140, chain 2 of 2) above", "assay": "SAXS titration"}, "[3]": {"biological_target": "XLF(1-248) (Homo sapiens, UniProt Q9H9Q4 1-248)", "sequence (Q9H9Q4 1-248)": "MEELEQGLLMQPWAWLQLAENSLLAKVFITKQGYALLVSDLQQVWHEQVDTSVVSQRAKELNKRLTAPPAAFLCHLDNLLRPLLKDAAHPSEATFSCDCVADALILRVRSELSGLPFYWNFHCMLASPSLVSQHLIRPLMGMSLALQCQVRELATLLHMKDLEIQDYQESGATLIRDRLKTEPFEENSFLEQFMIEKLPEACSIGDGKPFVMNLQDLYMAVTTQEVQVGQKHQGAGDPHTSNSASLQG", "assay": "tryptophan fluorescence quenching"}, "[4]": {"biological_target": "XRCC4 FL (Homo sapiens, UniProt Q13426 1-336)", "sequence (Q13426 whole entry)": "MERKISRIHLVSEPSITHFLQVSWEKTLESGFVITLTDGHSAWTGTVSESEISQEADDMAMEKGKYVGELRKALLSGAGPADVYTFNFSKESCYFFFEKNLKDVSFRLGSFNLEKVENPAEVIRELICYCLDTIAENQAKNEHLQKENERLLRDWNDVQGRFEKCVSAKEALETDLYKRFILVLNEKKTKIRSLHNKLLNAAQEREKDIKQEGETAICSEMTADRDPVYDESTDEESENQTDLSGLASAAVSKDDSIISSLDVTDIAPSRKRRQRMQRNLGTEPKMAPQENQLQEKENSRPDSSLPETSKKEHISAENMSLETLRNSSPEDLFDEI", "assay": "tryptophan fluorescence quenching"}, "[5]": {"biological_target": "XLF FL (Homo sapiens, UniProt Q9H9Q4 1-299)", "sequence (Q9H9Q4 whole entry)": "as the sequence (Q9H9Q4 whole entry, chain 1 of 2) above", "assay": "tryptophan fluorescence quenching"}, "[6]": {"biological_target": "Ku70/80 heterodimer;XLF FL;XRCC4(1-140) (Homo sapiens (HeLa);Homo sapiens;Homo …, UniProt P12956;P13010;Q9H9Q4;Q13426 2-609;2-732;1-299;1-140, ||)", "sequence (P12956 2-609, chain 1 of 4)": "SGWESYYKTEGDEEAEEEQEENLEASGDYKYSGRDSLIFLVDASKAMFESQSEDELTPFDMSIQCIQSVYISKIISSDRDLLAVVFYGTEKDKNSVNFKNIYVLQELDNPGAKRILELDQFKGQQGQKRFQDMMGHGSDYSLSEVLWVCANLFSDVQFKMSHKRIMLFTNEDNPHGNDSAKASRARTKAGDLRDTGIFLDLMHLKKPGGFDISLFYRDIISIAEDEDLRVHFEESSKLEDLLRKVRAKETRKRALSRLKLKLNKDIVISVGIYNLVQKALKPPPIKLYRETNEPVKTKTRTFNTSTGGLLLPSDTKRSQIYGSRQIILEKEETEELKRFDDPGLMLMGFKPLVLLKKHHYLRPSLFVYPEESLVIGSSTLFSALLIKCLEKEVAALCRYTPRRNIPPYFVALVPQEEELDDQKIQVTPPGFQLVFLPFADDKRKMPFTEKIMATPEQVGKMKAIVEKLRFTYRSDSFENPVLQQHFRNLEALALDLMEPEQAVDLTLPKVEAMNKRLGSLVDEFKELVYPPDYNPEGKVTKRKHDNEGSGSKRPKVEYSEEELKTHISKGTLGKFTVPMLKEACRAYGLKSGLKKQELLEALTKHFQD", "sequence (P13010 2-732, chain 2 of 4)": "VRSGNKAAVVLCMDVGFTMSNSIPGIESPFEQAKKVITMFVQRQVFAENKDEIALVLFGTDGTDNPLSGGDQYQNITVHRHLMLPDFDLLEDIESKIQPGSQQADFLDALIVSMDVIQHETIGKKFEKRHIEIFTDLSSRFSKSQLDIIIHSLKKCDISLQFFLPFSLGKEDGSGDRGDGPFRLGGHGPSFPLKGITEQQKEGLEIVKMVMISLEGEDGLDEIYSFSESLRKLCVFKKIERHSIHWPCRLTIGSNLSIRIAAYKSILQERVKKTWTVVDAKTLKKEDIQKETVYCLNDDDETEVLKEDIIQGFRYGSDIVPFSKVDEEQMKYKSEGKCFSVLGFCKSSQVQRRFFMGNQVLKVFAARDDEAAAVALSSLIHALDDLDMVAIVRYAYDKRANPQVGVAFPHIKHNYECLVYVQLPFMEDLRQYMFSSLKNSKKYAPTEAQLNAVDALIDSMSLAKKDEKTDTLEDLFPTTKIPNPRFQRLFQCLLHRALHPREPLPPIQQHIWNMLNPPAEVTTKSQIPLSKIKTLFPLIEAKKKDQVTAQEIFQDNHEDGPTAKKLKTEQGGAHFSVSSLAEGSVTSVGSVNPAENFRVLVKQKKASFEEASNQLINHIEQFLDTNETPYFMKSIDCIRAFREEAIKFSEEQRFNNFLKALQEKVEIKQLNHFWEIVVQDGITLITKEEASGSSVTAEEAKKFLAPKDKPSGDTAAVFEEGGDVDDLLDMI", "sequence (Q9H9Q4 whole entry, chain 3 of 4)": "as the sequence (Q9H9Q4 whole entry, chain 1 of 2) above", "sequence (Q13426 1-140, chain 4 of 4)": "as the sequence (Q13426 1-140, chain 2 of 2) above", "assay": "SEC co-elution and SAXS"}, "[7]": {"biological_target": "XRCC4 FL;XLF(1-248) (Homo sapiens;Homo sapiens, UniProt Q13426;Q9H9Q4 1-336;1-248, |)", "sequence (Q13426 whole entry, chain 1 of 2)": "as the sequence (Q13426 whole entry) above", "sequence (Q9H9Q4 1-248, chain 2 of 2)": "as the sequence (Q9H9Q4 1-248) above", "assay": "tryptophan fluorescence quenching"}}}
{"binder": "B1", "values": [{"measurement": "binding result", "setting": "[1]", "value": "binds"}, {"measurement": "binding result", "setting": "[2]", "value": "binds"}, {"measurement": "Kd", "setting": "[3]", "value": "2.9 ± 0.2", "unit": "µM"}, {"measurement": "Kd", "setting": "[4]", "value": "0.95 ± 0.05", "unit": "µM"}, {"measurement": "Kd", "setting": "[5]", "value": "1.6 ± 0.1", "unit": "µM"}, {"measurement": "binding result", "setting": "[6]", "value": "binds"}, {"measurement": "Kd", "setting": "[7]", "value": "0.7 ± 0.05", "unit": "µM"}]}
